Target: the molecule itself
Assay: SDS-PAGE, immunoblot and MALDI-TOF of purified and depolymerized pili (self-assembly)

B1: PilA pilin subunit of Geobacter sulfurreducens (mature PilA, ca. 6.5-7 kDa band from octyl-glucoside-depolymerized pili) (other)
chain: FTLIELLIVVAIIGILAAIAIPQFSAYRVKAYNSAASSDLRNLKTALESAFADDQTYPPES
notes: Native protein from strain PCA, denatured on SDS-PAGE and blotted; also called nanowire pilin subunit; PilA band
  binding result: binds
